Assay results as given in the NTF2 design screens of Basanta et al. (2020).

Assay: protease stability score; higher = more stable; yeast display proteolysis, trypsin and chymotrypsin;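 note: relative to predicted unfolded state with 0 unfolded-like and 1 meaning tenfold more protease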

Sequence	protease stability score
SENKRVAVEWVRDFLRALRTGDEDRVRQLADPHVRIDFNGRDHHGRHFLVRMLREIRIHDVRIRDVDVQGDFLITELEIDVEIDGKRDTLRMNIIFEKVDGRWMVSEVQFE	1.5
SEQDEMAEKWVHMFLHSWFTGDEDFFETLLDPNVQLIVNGKHHHGREDVKRFLHEEYRRIDHIEDFHLRRLEIQGDFARLDGEVIMIVNGRRHEFRVEIRLFIVNGKMRSIEINEE	2.23
SEQEEITKKATEDMLRNIETGDPDMIDHLLDPDVRQEIIINGRSHENHGMEKLRKWLSTWHDEFKNVKYDLRTVEIIDGRVRIEGVLNVDGVDLHIEIRLVIVNGKLREVYHHVD	1.36
SEQEELSKKFFHDLLHAMKTGDESSLYSFLDPNMKHEFDGKVIHGMEEVARIIVEKLERADHHDIRIHDEKMQGDYLVMDVRIIINIDGKEVIKDIKLTWLKIDGRWHVTSVVLH	1.73
SEQEERETRFMEKAWDLLRTGDEHLLERLADPNARLEIDGRKKHGRETIIEYFRHVKEHLGFKHIELHHMHLVDGVLHIDGIFRYGDKTHRTEIVYYVVNGRLERIEIIIL	1.22
SEQEESRRWWLEELLTFLVTGDENRLKELLDPDVRVVVNGKHLHGMEAFEEYLRQIDHVDSHKVTDVKVQGNKIIVHTRAKINVDGRHVETELIFIVHKIDGKWKLHSFESR	1.69
SEQEEYLKEYAKHFYEFLLTGDEDWLKRLFDPEARLTVEVGDKTEHLHGREEVSKFWKHLLTEMRIEMTLKDLDSQGEFIVSVTELNINIDGKTIHTRMEIILVVVNGRLREVELRIK	2.3
SEQEHFDRLAFKLLLHSIHTGDWRLLTEEFDPNTLIIIGEKIHHGMEFVREHIEVLGADHVDIEIHIRHVRHQGNKADMDMQVDIDIDVNGRRIRIRSRRRYISLKVDGRWVTTSLEIK	0.939
SEQEKELQDALEILMHRWLTGDEDFLYEMMDPNVRFTINGQDFHGRDFFRQKWKELGLTRVEIDLKFVRLQGDKATVHGHINFNGRTTDVIMYIDKVNGVWITKTIEFR	2.17
SEQERKVREWTEEEIRWFLTGDEDIWSHFADPNARSVHHIGNKTIHTHGMEDVTRVIRELLQELGADHRTVHELEIQGDKSTVNLEIRIGDKTYEVHIIIIIINGKRKYHIVHFRVQ	0.982
SEQHEITEHIARIILEFLTTGDFTEFFKMLDPHVRITVGDKFNVGRHVFWHLWQELFDHIRIRHISLKHIHIVDGRLHLDTRVHGKVDGKETTLDQHIHIEIINGRITSVNLEYR	2.12
SEQHKIAQEMAERILELWQTGDEDTFRYLADPHYRLHIIINGKHHDHHGREEWDKWYRELLDRIDHVRLIWRSVETQGDKLRVDGELVLIIDGKRIVEKVHLEFRVIDGVLRHETIKVR	1.48
SEQSKHVKDMFDTWVHSERTGDWRVAKELVDPNARIDINGREFHGMEEAERLAHEIFTRIDHKELRIDHVHFINGVFKVEGTVIFRQGDKQFTIETRIHLFVINGRLKELKVEFI	1.15
SEQWEEAKRLTDLYLTTSHTGDEQLSREFMDPHARTIVDGVEVHGMEEWANRFMRFVKQLRVDFRIHDMDVQGEKVDVDIRIRFVFNGVEHRIESILIVHKINGRWLMKEQRII	1.34
SERDEEAKHLSEEIIRLWRTGDWKTFVRMLDPNDRMEVDGQSFHGMEDVIKFLLDFWKHLRIEDIRFRDLKYQGDKASSHTEVDVRIGDKQTRLHTEVDVLVVNGKLKSHRIKIE	1.08
SERDELVEKLMESALDFWRTGNEDLMERLLDPHVRLDINGREHHGREVVIKAFREIWMLLGIDHIDIHHVDIQGEYVHLDVRVKVNGKDTRSRIELIVVDGKITELIIRLR	2.51
SERDEVAHLAFEYLINTHQTGDWRLFKEYLDPNVRFHVGDKFFHGRESVSKFFEEEMHRLGFKHIEMEHFEQQGDYLTINLTVRVDGQEYKLIYFALKVDGRWILRSITFE	1.38
SERDKFTEEVARLWYHLLYTGNEELLQHMMDPDVRVHINGRTVVGRHEATRLLHELSETFGINHIHIHDIKIQGDKSDDDTEIQAPGRRVRVHIHLEIINGRIKRIEFRIE	1.68
SERDRHNEEMARHFIRLFLTGDWDDFQHLFDPNVRTHIDGRDYHGWRSTLEAVRTLEREIRIEEIRVEHVDTQGDFIHQDTKVDFNVNGQRVIRESKVHIYEVNGRIKEIEMHYH	0.486
SERDRIAKELKDILRSSRETGDERMMEELADPNVRFEINGVTIIGREEFYRWMSEWRLELEHSNDHDEREFDGQVNVDGTLVMRFTVNGQERREKVRITIHFLKVDGRWILHRIIIH	2.03
SEREDEMNHSRHLIEDSWRTGDFHITVRLADPHMKVIVGDYEYHGREHLHEVARNADIYHRIHINDWRIIGNKVEIDTEIDGFFNGVPHRTRVEIILSKINGRWILRSIIFR	1.31
SEREDITHEFIQKTIKAIHTGDFILLLRLLDPDMQFDIGDKEFIGRERLREFMEEWRVRVKHYEIEHVRLQGDKLETHTHEHREIWIGDKVVHERFDRKIEITKVDGQWAIKRVEII	0.284
SEREEDTEHHMRMLIKDHETGDWRSWKKLVDPHVKLEINGREHHGRELALHMFRRVDHIESTVRDRTIQGDKVHHDGHLIINVDGVNIIVRSEIILIKVDGQWRIEILIFR	0.957
SEREEEARKMTRRIIHTFFTGNEDFWDHLVDPNARVVINGVTVHGWERFQELLVDFLKEMRTRHIELRHLDAYGDKAHTDGRVDGDVNGQRVLRIEHLRVDVINGKVHSVEIEFR	0.916
SEREEEMKHLHKNLVHNLFTGDEDSHKKLADPNARSVFDGRDFIGMDWWSRYYRHVFERFKGLRLENHHIHFQGNYLHIEARSYIGDKEEIWHFDYFMFDGKVHEVRMEVTKR	0.813

Sequence	protease stability score
SEREEENRRAFHKFWEIIKTGDEELQDTFADPHVRLDVDGKEFHGREWIVRMLTELLRRFGVDHITFKHVEVQGDKLIIHHRDEVGDKKFELHVIVDKINGRWYERHVSMSER	1.65
SEREEHDEFIMKLSLELEKTGDEHTIERLADPNPRIILEQGDKRITRHGWEHWEELLRRLGIKHIEFHRHKAINGQVHVDGTLRFDGVTVRSELVLIMVDGVMKTIKVIIR	1.44
SEREEHTEEVWRDWLQSILTGDEDDLKRLADPHVRLEINFDGRTLIYHGREIVARFWSELRIRHFTLRHLKMIGDKIQVKGETKLEQGDKKVDSSVDLDTDIINGVIKREFVVYR	0.892
SEREEKIEHALRRLFEVILTGDERLANELLDPNVLLDVGDKKIHGREEVMRILHHWRIDKFEMHTHDIRLIGEKAHVDTISDRRVHVNGRTQDITERVHFVVLKVNGVWFIHSMHIH	1.59
SEREELVRYAIELMEEVMRTGDERLIESMADPNTRVVVNGVELHGRNHLLRVWSEWRTRDMREREVHVYDGRIEMHGTSDITIGDKHVITDTRHIAEKVDGRWILRSVEFR	0.405
SEREESFEKWVEMYERALQTGDEEHISRLMDPNARSNINGVELHGREQTLEWLRHVKENLGVERVDVRVNLHRYRVIGNYIESDQELILIYNGREFRFHFHFIARKINGRWVVDRLEIK	2.51
SEREEYLEEMFHLFIHYLLTGDWELLINLMDPHARNEIHINGVIFLVHGRELVKEIWERFRKHIRIKHIHVEELRVQGDKAESHTWVHYTIDGRESRVFTRVEIRIIDGVVRRISVEIR	1.72
SEREEYSHRAVELLIHLLRTGDEDMISKLADPNTYLDWNGREEVGMEDWLRLLREMRIHDVIIHTIEIQGDKIHMDVIIDGEFDGRRTEMRVHLILLKVNGRWVLTEVKIH	1.03
SEREHEALRWMELIIDLWITGDEEFTHKLADPHAKYEYGDKVIHGMEEFTRIMNEWRIKRVHLHEFRFIGNFSHSNMHRRGNIDGVDVDTEITVTVVIVNGRISSISIEVR	0.751
SEREHEVQESLEILIKLWHTGDFRAISEYADPNVRSDVNGKEFHGRENVEEALERSMKDLGVKVVHSEHIEHLEIYGNKVIVHVRIDGEVDGKRFHSHFIMYTTKVDGQWRVHEIRVH	1.03
SEREHLADRFVKELTTALQTGDEEKIREMFDPHMKLIINGVTFHGWEELEKIRKRVDHIEHVEVRIEDVRIINGVVEIKGELHVHERVGDKIIDRSNDQTYFVEKVNGRWILKQVELH	1.14
SEREKESERLWRLSAEVMETGDESMSLKEFDPHYRVLFDGQDFHGREQWKEFLERFDHEALKRFHEKRDDRQGDKAIHEGDLDLVLNYGDKQLRTRRDVIFYITKVNGKWMIKIVEFV	0.084
SEREKHSKELNEHMIQLFETGDEDLLIRMADPHVRVIQGDKEYHGRHWYEKIFHDFVKQAQNARFEIHDVKIQGEKLIIHGKMEWNGKRHEVEWYFDIVDGRIKEEEIRIR	0.943
SEREKHWRDWVENVVEYHTHLLETGDEEEWKRFFRRLADPHVRMIVGDKVTHGREDAMRLFDELIKLLGVNHVHFRRVEIIGNKVNIDVELRQGNKFINLELILIVIDGKLENVERRVH	1.14
SEREKIAELAYRLLKRSSDTGDPHLMQWLMDPNTRIEQGEFEHHGRDAISFWIKRFDHNRHIDVKRIEVQGNKVIMEFDVELDVNGVEIHTELVLISLKVNGQWRMESIKIE	0.575
SEREQTVRHWVELLIHLLITGDEETLVHLLDPHARADIDGVEMHGRKTTEFWLKLFPHIKIELRRVEIQGEKVHMDTTMIQGEKERSTRIHLDVINGRIKRHSYEIE	0.262
SERHDHAEHVLRLWEHFWKTGDETNLSRLLDPSVRWVIGDKVYHGMETVSHNLSRHYLRADHVEESVHRLNFQGNKVEMDGRIILNVNGVQIDKRSHIELISFNGKIKELDLHIT	0.371
SERHEESHERTRLLMHAHETGDFHTLQRLMDPDTRLLIIFNGREIHIHGMESAFKFFNEIRISHVTIHRVDIQGDKVNVDGEQEGQINGQRSRNRIHWDIDVIDGKIKRIIVEIR	0.993
SERHEILRLITEIWDHLKHTGDEDSLADLFDPHARMIWNGRDIHGWSNLIEAFRKILEFLGIDRIHIENTEMRLQGDKSHNRTDLNVNGKHLDTRVHLDVVDGRIRVTEVRIH	1.06
SERHEKTKKVLDDFLEIRETGDEHTFNRLADPHTRVHIGDKYVHGMEDANKMLKQWEQEMGIDHIIIRHVEIRLFNGKVNHHLDEELIVNGQSLRVEVVLFIFKFDGRWVLEKLHINVH	1.21
SERHELVVRIVRLWIRMIRTGNEELYMRLADPHVKLDVNGREMHGRERSTEMWSELRIRHLHTEHIEVAENRFVVHGRLVTEFNGKEHDVKVVIHVEIVDGRIKEEEYHIL	1.29
SERHKDMKRLIDEWRKSYETGDEDQLRRLLDPTTRVDFNGVEYHGRHEAVEIMSQIRVEHIDIRELHVQGNKAEVRVRMHGHFDGQEEEVEFIIYMKKVNGRWVVHQEEHR	1.16
SERKQASEDAFRIYIETFKTGDERTMRENMDPDVRVHIGEFNHHGMEESAHLLHEYWKRFGFRIRHVHIEDVKNVGNKVILHTLSEIEINGREEHVDTELIILKIDGKWLVEEVRVK	0.92
SERREFSNFTMQMTITVTLTGDFHTSHRFVDPHARWEQGDKEYHGREIFAKTLLDKSSELGVDHYDIKTIHIQGEKVTVHLRVEVNGVEFELILRAHKINGVWLMESVEVRER	0.971
SERRERLEVLSEILLRAWETGDEQELVENADPHTKLEVHQGDKEKHFHGWELILKHIYQIKNVKIHIEHVHIQGDKIENHVKLNINGKRIEVEITVWVVDGVIKHMEVRIK	1.93
